Results on 2 molecules are retold here after article doi:10.1101/2024.04.29.591597 (bioRxiv, 2024).

Some results are limits rather than exact numbers.

For data set [1], the target named is OspC type B (OspCB) used in BLI (Borreliella burgdorferi, OspC type B …, UniProt Q44977). Nature of the data set: BLI. On the technique in general: Biolayer interferometry detects binding as a change in optical thickness at a sensor tip.
The target of data set [2] is native OspC type K (OspCK) on live B. burgdorferi strain 297 (B. burgdorferi (endogenous in strain 297)). Nature of the data set: flow cytometry on cells. (In flow cytometry, cells or beads pass a laser one at a time.)
Data set [3] concerns the molecule itself. Nature of the data set: crystal structure.

B1: human monoclonal antibody B11 IgG1 (antibody, V domains shown)
VH: QLQLQESGPGLVKPSQTLSLTCTLSGGSISSTSYYWGWIRQPPGSGLEWIGSMYHSGNTYYKSSLKGRVTISLDTSRTQFSLRLTSVTAADTAVYYCARLGDVFNSAMDVWGQGTTVIVSS
VL: EIVMTQSPVTLSVSPGERATLSCRASQSVGNNLAWYQHKPGQAPRLLIYDASTRATGIPGRFSGSGSGTEFTLTISSLQSEDFAVYYCQEYNNWPRYTFGQGAKLEIR
Turning to B1, the binding result in data set [1] is given as “no binding”. This molecule yielded an MFI in data set [2] below 35.

B2: Recombinant Outer surface protein C type A (OspCA), residues 38 to 201, homodimer (domain or fragment, B. burgdorferi B31, UniProt Q07337 38-201, looked up)
chain: KGPNLTEISKKITDSNAVLLAVKEVEALLSSIDEIAAKAIGKKIHQNNGLDTENNHNGSLLAGAYAISTLIKQKLDGLKNEGLKEKIDAAKKCSETFTNKLKEKHTDLGKEGVTDADAKEAILKTNGTKTKGAEELGKLFESVEVLSKAAKEMLANSVKELTSP
What is called stoichiometry N is the number of molecules, sites or subunits per partner or assembly. Regarding B2, in data set [3], the “stoichiometry N” value amounted to 2.
